T1: mouse FcRn (Sino Biological Cat. No. CT029-M08H) (mouse, UniProt Q61559 22-297; P01887 21-119)
T1 construct: Bought protein, captured on an anti-histidine chip
T1 sequence (looked up): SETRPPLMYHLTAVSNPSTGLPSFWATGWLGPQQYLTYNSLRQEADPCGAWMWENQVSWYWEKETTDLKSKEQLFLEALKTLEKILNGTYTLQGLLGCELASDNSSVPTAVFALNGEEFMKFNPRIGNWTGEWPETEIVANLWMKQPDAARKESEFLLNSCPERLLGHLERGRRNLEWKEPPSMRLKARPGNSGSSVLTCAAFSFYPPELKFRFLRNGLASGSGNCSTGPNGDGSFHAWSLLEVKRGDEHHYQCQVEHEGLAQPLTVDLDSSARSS
T1 sequence (b2m, looked up): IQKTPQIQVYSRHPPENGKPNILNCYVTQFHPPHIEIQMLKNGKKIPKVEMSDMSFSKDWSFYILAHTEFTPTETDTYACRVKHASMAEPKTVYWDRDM


Legend:
[1] = molecular target: T2, human FcRn (R&D Systems Cat. No. 8639-Fc) (human, UniProt P55899 24-297; P61769 21-119); experiment: SPR, FcRn captured; Mean
[2] = molecular target: T2, human FcRn (R&D Systems Cat. No. …); experiment: SPR, FcRn captured; Expt 1
[3] = molecular target: T2, human FcRn (R&D Systems Cat. No. …); experiment: SPR, FcRn captured; Expt 2
[4] = molecular target: T2, human FcRn (R&D Systems Cat. No. …); experiment: SPR, FcRn captured; Expt 3
[5] = molecular target: T3, Human C1q (Sigma Cat. No. 20476), HRP-labelled (human, UniProt P02745 23-245; P02746 28-253; P02747 29-245); experiment: ELISA, antibody coated, HRP-C1q; Expt 2, buffer alone 0.091
T3 construct: Coupled to horse-radish peroxidase with Lightning-Link kit; also called HRP-labelled C1q

[6] = molecular target: T4, C-terminus biotinylated human FcRn attached to Streptavidin-SmBiT (FcRn-SAv-SmBiT) (human, UniProt P55899 24-297; P61769 21-119, limits assumed, C-terminus biotinylated (AviTag), attached to Streptavidin-SmBiT); experiment: NanoBiT FcRn competition immunoassay, competitor Tracer-LgBiT human IgG, pH 6.0
T4 construct: Kit reagent; also called hFcRn-AviTag

[7] = molecular target: T3, Human C1q (Sigma Cat. No. 20476), …; experiment: ELISA, antibody coated, HRP-C1q; Expt 1, buffer alone 0.053
[8] = molecular target: T3, Human C1q (Sigma Cat. No. 20476), …; experiment: ELISA, antibody coated, HRP-C1q; Expt 2, buffer alone 0.051
[9] = molecular target: T2, human FcRn (R&D Systems Cat. No. …); experiment: SPR, FcRn captured via anti-His, pH 6.0;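 note: SPR binding signal relative to the reference cell, corrected by subtracting the response of a blank sample of running buffer alone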
[10] = molecular target: T5, cynomolgus monkey FcRn (Sino Biological Cat. No. CT031-C08H) (cynomolgus monkey, UniProt Q8SPV9 24-297; Q8SPW0 21-119); experiment: SPR, FcRn captured via anti-His, pH 6.0;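 note: SPR binding signal relative to the reference cell, corrected by subtracting the response of a blank sample of running buffer alone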
T5 construct: Bought protein, captured on an anti-histidine chip; also called cynomolgus FcRn

[11] = molecular target: T1, mouse FcRn (Sino Biological Cat. No. …); experiment: SPR, FcRn captured via anti-His, pH 6.0;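 note: SPR binding signal relative to the reference cell, corrected by subtracting the response of a blank sample of running buffer alone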
[12] = molecular target: T3, Human C1q (Sigma Cat. No. 20476), …; experiment: ELISA, antibody coated, HRP-C1q; Expt 1, buffer alone 0.061

Row | Binder | Corrected and normalised response (% of wild-type reference) [1] | Corrected and normalised response (% of wild-type reference) [2] | Corrected and normalised response (% of wild-type reference) [3] | Corrected and normalised response (% of wild-type reference) [4] | Mean binding activity (% of wild-type reference) [6] | Mean Absorbance [7] | Mean Absorbance [8] | also measured
1 | anti-CD20 (rituximab) human IgG1 L234Q/G236R (antibody, EU numbering; also called 2-30; copies: 2 + 2) heavy: not shown light: QIVLSQSPAILSASPGEKVTMTCRASSSVSYIHWFQQKPGSSPKPWIYATSNLASGVPVRFSGSGSGTSYSLTISRVEAEDAATYYCQQWTSNPPTFGGGTKLEIKRTVAAPSVFIFPPSDEQLKSGTASVVCLLNNFYPREAKVQWKVDNALQSGNSQESVTEQDSKDSTYSLSSTLTLSKADYEKHKVYACEVTHQGLSSPVTKSFNRGEC | 99.3 % of wild-type reference | 100 % of wild-type reference | 99 % of wild-type reference | 99 % of wild-type reference |  |  |  | Mean Absorbance [5]: 0.089 absorbance (450 nm)
2 | anti-CD20 (rituximab variable regions) human IgG2 L234Q/L235S (antibody, also called 11.144; copies: 2 + 2) heavy: QVQLQQPGAELVKPGASVKMSCKASGYTFTSYNMHWVKQTPGRGLEWIGAIYPGNGDTSYNQKFKGKATLTADKSSSTAYMQLSSLTSEDSAVYYCARSTYYGGDWYFNVWGAGTTVTVSSASTKGPSVFPLAPCSRSTSESTAALGCLVKDYFPEPVTVSWNSGALTSGVHTFPAVLQSSGLYSLSSVVTVPSSNFGTQTYTCNVDHKPSNTKVDKTVERKCCVECPPCPAPPQSGPSVFLFPPKPKDTLMISRTPEVTCVVVDVSHEDPEVQFNWYVDGVEVHNAKTKPREEQFNSTFRVVSVLTVVHQDWLNGKEYKCKVSNKGLPAPIEKTISKTKGQPREPQVYTLPPSREEMTKNQVSLTCLVKGFYPSDIAVEWESNGQPENNYKTTPPMLDSDGSFFLYSKLTVDKSRWQQGNVFSCSVMHEALHNHYTQKSLSLSPGK light: QIVLSQSPAILSASPGEKVTMTCRASSSVSYIHWFQQKPGSSPKPWIYATSNLASGVPVRFSGSGSGTSYSLTISRVEAEDAATYYCQQWTSNPPTFGGGTKLEIKRTVAAPSVFIFPPSDEQLKSGTASVVCLLNNFYPREAKVQWKVDNALQSGNSQESVTEQDSKDSTYSLSSTLTLSKADYEKHKVYACEVTHQGLSSPVTKSFNRGEC |  |  |  |  | 143 % of wild-type reference |  |  | 
3 | anti-CD20 (rituximab variable regions) human IgG4 L234Q/L235S/G236R (with S228P) (antibody, copies: 2 + 2) heavy: QVQLQQPGAELVKPGASVKMSCKASGYTFTSYNMHWVKQTPGRGLEWIGAIYPGNGDTSYNQKFKGKATLTADKSSSTAYMQLSSLTSEDSAVYYCARSTYYGGDWYFNVWGAGTTVTVSSASTKGPSVFPLAPCSRSTSESTAALGCLVKDYFPEPVTVSWNSGALTSGVHTFPAVLQSSGLYSLSSVVTVPSSSLGTKTYTCNVDHKPSNTKVDKRVESKYGPPCPPCPAPEQSRGPSVFLFPPKPKDTLMISRTPEVTCVVVDVSQEDPEVQFNWYVDGVEVHNAKTKPREEQFNSTYRVVSVLTVLHQDWLNGKEYKCKVSNKGLPSSIEKTISKAKGQPREPQVYTLPPSQEEMTKNQVSLTCLVKGFYPSDIAVEWESNGQPENNYKTTPPVLDSDGSFFLYSRLTVDKSRWQEGNVFSCSVMHEALHNHYTQKSLSLSLGK light: QIVLSQSPAILSASPGEKVTMTCRASSSVSYIHWFQQKPGSSPKPWIYATSNLASGVPVRFSGSGSGTSYSLTISRVEAEDAATYYCQQWTSNPPTFGGGTKLEIKRTVAAPSVFIFPPSDEQLKSGTASVVCLLNNFYPREAKVQWKVDNALQSGNSQESVTEQDSKDSTYSLSSTLTLSKADYEKHKVYACEVTHQGLSSPVTKSFNRGEC |  |  |  |  | 114 % of wild-type reference | 0.051 absorbance (450 nm) | 0.052 absorbance (450 nm) | 

Second part, led by results:

Row | Corrected and normalised response (% of wild-type reference) [1] | Corrected and normalised response (% of wild-type reference) [2] | Corrected and normalised response (% of wild-type reference) [3] | Corrected and normalised response (% of wild-type reference) [4] | Mean binding activity (% of wild-type reference) [6] | Mean Absorbance [7] | Mean Absorbance [8] | Binder | also measured
4 | 108 % of wild-type reference | 106 % of wild-type reference | 108 % of wild-type reference | 108 % of wild-type reference |  |  |  | anti-CD20 (rituximab) human IgG1 L234R/L235R/G236R (antibody, EU numbering; also called 2-43; copies: 2 + 2) heavy: QVQLQQPGAELVKPGASVKMSCKASGYTFTSYNMHWVKQTPGRGLEWIGAIYPGNGDTSYNQKFKGKATLTADKSSSTAYMQLSSLTSEDSAVYYCARSTYYGGDWYFNVWGAGTTVTVSSASTKGPSVFPLAPSSKSTSGGTAALGCLVKDYFPEPVTVSWNSGALTSGVHTFPAVLQSSGLYSLSSVVTVPSSSLGTQTYICNVNHKPSNTKVDKKVEPKSCDKTHTCPPCPAPERRRGPSVFLFPPKPKDTLMISRTPEVTCVVVDVSHEDPEVKFNWYVDGVEVHNAKTKPREEQYNSTYRVVSVLTVLHQDWLNGKEYKCKVSNKALPAPIEKTISKAKGQPREPQVYTLPPSRDELTKNQVSLTCLVKGFYPSDIAVEWESNGQPENNYKTTPPVLDSDGSFFLYSKLTVDKSRWQQGNVFSCSVMHEALHNHYTQKSLSLSPGK light: QIVLSQSPAILSASPGEKVTMTCRASSSVSYIHWFQQKPGSSPKPWIYATSNLASGVPVRFSGSGSGTSYSLTISRVEAEDAATYYCQQWTSNPPTFGGGTKLEIKRTVAAPSVFIFPPSDEQLKSGTASVVCLLNNFYPREAKVQWKVDNALQSGNSQESVTEQDSKDSTYSLSSTLTLSKADYEKHKVYACEVTHQGLSSPVTKSFNRGEC | Corrected response (RU) [9]: 570 RU; Corrected response (RU) [10]: 1300 RU; Corrected response (RU) [11]: 181 RU; Mean Absorbance [12]: 0.029 absorbance (450 nm)
5 |  |  |  |  | 650 % of wild-type reference | 0.051 absorbance (450 nm) | 0.062 absorbance (450 nm) | anti-CD20 (rituximab) human IgG1 L234Q/L235S/G236R/T250Q/M428L (antibody, EU numbering; also called 10.146; copies: 2 + 2) heavy: QVQLQQPGAELVKPGASVKMSCKASGYTFTSYNMHWVKQTPGRGLEWIGAIYPGNGDTSYNQKFKGKATLTADKSSSTAYMQLSSLTSEDSAVYYCARSTYYGGDWYFNVWGAGTTVTVSSASTKGPSVFPLAPSSKSTSGGTAALGCLVKDYFPEPVTVSWNSGALTSGVHTFPAVLQSSGLYSLSSVVTVPSSSLGTQTYICNVNHKPSNTKVDKKVEPKSCDKTHTCPPCPAPEQSRGPSVFLFPPKPKDQLMISRTPEVTCVVVDVSHEDPEVKFNWYVDGVEVHNAKTKPREEQYNSTYRVVSVLTVLHQDWLNGKEYKCKVSNKALPAPIEKTISKAKGQPREPQVYTLPPSRDELTKNQVSLTCLVKGFYPSDIAVEWESNGQPENNYKTTPPVLDSDGSFFLYSKLTVDKSRWQQGNVFSCSVLHEALHNHYTQKSLSLSPGK light: QIVLSQSPAILSASPGEKVTMTCRASSSVSYIHWFQQKPGSSPKPWIYATSNLASGVPVRFSGSGSGTSYSLTISRVEAEDAATYYCQQWTSNPPTFGGGTKLEIKRTVAAPSVFIFPPSDEQLKSGTASVVCLLNNFYPREAKVQWKVDNALQSGNSQESVTEQDSKDSTYSLSSTLTLSKADYEKHKVYACEVTHQGLSSPVTKSFNRGEC | 
6 |  |  |  |  | 3940 % of wild-type reference | 0.052 absorbance (450 nm) | 0.056 absorbance (450 nm) | anti-CD20 (rituximab) human IgG1 L234Q/L235S/G236R/M252Y/S254T/T256E (antibody, EU numbering; also called 10.145; copies: 2 + 2) heavy: QVQLQQPGAELVKPGASVKMSCKASGYTFTSYNMHWVKQTPGRGLEWIGAIYPGNGDTSYNQKFKGKATLTADKSSSTAYMQLSSLTSEDSAVYYCARSTYYGGDWYFNVWGAGTTVTVSSASTKGPSVFPLAPSSKSTSGGTAALGCLVKDYFPEPVTVSWNSGALTSGVHTFPAVLQSSGLYSLSSVVTVPSSSLGTQTYICNVNHKPSNTKVDKKVEPKSCDKTHTCPPCPAPEQSRGPSVFLFPPKPKDTLYITREPEVTCVVVDVSHEDPEVKFNWYVDGVEVHNAKTKPREEQYNSTYRVVSVLTVLHQDWLNGKEYKCKVSNKALPAPIEKTISKAKGQPREPQVYTLPPSRDELTKNQVSLTCLVKGFYPSDIAVEWESNGQPENNYKTTPPVLDSDGSFFLYSKLTVDKSRWQQGNVFSCSVMHEALHNHYTQKSLSLSPGK light: QIVLSQSPAILSASPGEKVTMTCRASSSVSYIHWFQQKPGSSPKPWIYATSNLASGVPVRFSGSGSGTSYSLTISRVEAEDAATYYCQQWTSNPPTFGGGTKLEIKRTVAAPSVFIFPPSDEQLKSGTASVVCLLNNFYPREAKVQWKVDNALQSGNSQESVTEQDSKDSTYSLSSTLTLSKADYEKHKVYACEVTHQGLSSPVTKSFNRGEC | 

Reference: patent US20230235013A1 (MABSOLVE, published 2023)
